From US20090035258A1, “METHODS OF TREATING CANCER BY ADMINISTERING HUMAN IL-18 COMBINATIONS” (priority 2007, published 2009)
Where two headings read alike, the source gives them in different places.

Assays:
[1] = cited from earlier work
[2] = tested on: murine colon carcinoma, Colo 26; assay: IL-18 and 5-FU combination in syngeneic murine colon cancer model Colo26; format: in vivo, mouse; details: 5-FU alone or mIL-18 alone
Protocol: This study aimed to evaluate the efficacy of mIL-18 (SEQ ID NO:2) combination therapy with 5-fluorouracil (5-FU), as compared to monotherapy with 5-FU, or mIL-18 (SEQ ID NO:2) alone. Our study was performed in a well established syngeneic subcutaneous model of murine colon carcinoma, Colo 26, in BALB/c mice. The dosing with mIL-18 (SEQ ID NO:2) was performed daily with 10 μg/mouse s.c. on days 10-30 after tumor inoculation. The dosing with 5-FU was performed i.p. twice a week in the ascending dose: 27, 45 and 74 μg/mouse.
The data comparing tumor volumes in different treatment groups were evaluated at a selected representative time-point, and were expressed as mean+/−SD (FIG. 21), and as median+/−range (FIG. 22). The data were first checked for normal distribution (Gaussian approximation), and standard deviation values were compared to make sure that there is an equal variance. […] Therefore, a non-parametric test (Kruskal-Wallis analysis and Dunn's comparison test) was used for the statistical evaluation. […] FIG. 24 (median+/−SD) and FIG. 25 (mean+/−SD) show the effect of IL-18 and 5-FU combination therapy in same Colo26 syngeneic colon tumor model. […]
Survival of mice bearing Colo26 in different treatment groups was plotted in a Kaplan-Meyer survival curve analysis, and evaluated by Logrank test, and is shown in FIG. 26. […]

[3] = tested on: EL-4 T-cell lymphoma; assay: IL-18 combination with doxorubicin in EL-4 T cell lymphoma, survival; format: in vivo, mouse
Protocol: Studies were performed in female C57/BL/6 mice. As a general protocol, C57/BL mice were injected I.P. with 0.2 cc of stock EL-4 cells. EL-4 murine T-lymphoma cells were expanded in RPMI w/10% FCS. All animals were randomized to six or seven mice per study group with food and water ad libitum. EL-4 cells were harvested on day 0, counted and implanted I.P. with 5×10^5 EL-4 lymphoma cells. Animals were randomized to treatment groups of 6/7 animals on Day 3. Doxorubicin was administered IV on Days 3 &10, pos-implantation. mIL-18 (SEQ ID NO:2) was administered S.C. on Days 3-16. The animals were observed daily for toxicity and mortality.
All animals tolerated dosing schedule and levels well by gross observation. On day 16, all dosing was terminated, and median vehicle death occurred on day 17.5. All vehicle mice expired between days 16-18 post-implantation. Increase in lifespan was calculated by study group/vehicle group−1×100%. For mIL-18 (SEQ ID NO:2) combination therapy with doxorubicin in EL-4 T cell lymphoma, the data were analyzed with respect to median survival time and increase in lifespan.
The prolongation of life span in response to combinational therapy with mIL-18 (SEQ ID NO:2) and doxorubicin was assessed in the syngeneic tumor model of female C57BI/6 mice bearing EL-4 T-cell lymphoma. […] As described below, when vehicle animals expired (on day 16) all dosing was terminated. […]

[4] = tested on: NK cells; assay: NK cytotoxicity assay in EL-4 T-cell lymphoma model; details: 21 hours post-treatment (FIG. 12)
[5] = tested on: NK cells
[6] = tested on: human Ramos B-cell lymphoma line; assay: IL-18 combination therapy with RITUXAN in murine human B-cell lymphoma model; format: in vivo, mouse; details: first experiment (FIG. 3); mIL-18 single agent 100 μg/dose
Protocol: The study was performed in outbred female homozygous SCID mice (ICR-Prkdc^scid) that lack both T and B cells.
Mice were injected with human Ramos B-cell lymphoma line that was originally derived from a patient with Burkitt's lymphoma (ATCC catalogue, CRL 1596). The tumor 1:10 homogenate was inoculated into 6-8 week old mice at the dose 0.5 ml per mouse. […] The therapy was initiated when the median tumor volume per group reached 80-150 mm^3 (at day 12 post tumor inoculation). In addition, those mice that grew a tumor with a volume outside of the set limits were excluded from the study.
The number of animals was increased to n=12, in order to have a better window to measure statistical significance. Tumor volume was measured using the viener calipers two to three times a week.

[7] = tested on: MOPC-315 plasmacytoma; assay: IL-18 monotherapy in advanced MOPC-315 plasmacytoma model; format: in vivo, mouse
Source text: Based upon a broad spectrum of immunostimulatory properties, IL-18 has been studied in a variety of preclinical tumor models. […] Further support for IL-18 mediated cellular immunity also comes from immunohistochemistry performed on established MOPC-315 tumors in control and IL-18 treated mice. […] In addition, it seems that an intact Fas/Fas ligand pathway is beneficial to anti-tumor response.

Molecule: human IL-18: recombinant mature form of human interleukin-18 (SEQ ID NO: 1), expressed in Escherichia coli
- toxicity at highest dose tested ([1]; 2000 μg/kg administered weekly for up to 24 weeks): no significant toxicity
- maximum tolerated dose ([1]; up to 2000 μg/kg weekly for up to 24 weeks): not identified

Molecule: O=c1[nH]cc(F)c(=O)[nH]1 [5-FU, 5-fluorouracil, reference compound]
- therapeutic effect of monotherapy compared to control [2]: did not show a therapeutic effect better than a control

Molecule: COc1cccc2c1C(=O)c1c(O)c3c(c(O)c1C2=O)C[C@@](O)(C(=O)CO)C[C@@H]3O[C@H]1C[C@H](N)[C@H](O)[C@H](C)O1 [doxorubicin, reference compound]
- increase in lifespan ([3]; doxorubicin monotherapy 12 mg/kg IV days 3 & 10): minimal increase in lifespan
- NK cytotoxicity [4]: impaired

B1: mIL-18: recombinant murine IL-18 (SEQ ID NO:2), used in the pre-clinical studies (protein)
chain: NFGRLHCTTAVIRNINDQVLFVDKRQPVFEDMTDIDQSASEPQTRLIIYMYKDSEVRGLAVTLSVKDSKMSTLSCKNKIISFEEMDPPENIDDIQSDLIFFQKRVPGHNKMEFESSLYEGHFLACQKEDDAFKLILKKKDENGDKSVMFTLTNLHQS
modifications: Murine
- therapeutic effect of monotherapy compared to control [2]: did not show a therapeutic effect better than a control
- increase in lifespan ([3]; IL-18 monotherapy 1, 5 and 25 ug/dose S.C. days 3-16): did not show any increase in lifespan
- NK cytotoxicity [5]: robust NK cytotoxicity
- anti-tumor activity [6]: no activity
- tumor response ([7]; 5 mg/Kg daily for approximately 30 days, advanced tumor): reproducible tumor regressions and cure
- tumor response in SCID mice ([7]; SCIDs bearing advanced MOPC-315 tumors, similar schedule): failed to regress
- rechallenge with parental tumor ([7]; after cure with IL-18): tumor rejection
